Biological target: RmlT, wall teichoic acid rhamnosyltransferase of Listeria monocytogenes EGDe (Listeria monocytogenes EGDe)
Test: SEC

“RmlT, wall teichoic acid rhamnosyltransferase of Listeria monocytogenes EGDe (enzyme)” was tested, and the stoichiometry N was 2.

From publication doi:10.1101/2024.01.23.574818
